In the supplement of paper PMC11316812:
± gives the standard deviation of the averaged measurements.

Assays:
MCF7 = assay: percentage of EdU-negative (G0-arrested) nuclei per well, 72 h; higher = more G0 arrest; conditions: reference: sequence is the full UniProt precursor, the tested protein was the secreted form or ectodomain
hTERT-HMEC = assay: as above; conditions: reference: sequence is the full UniProt precursor, the tested protein was the secreted form or ectodomain
[1] = protein concentration 0.01207 µM
[2] = protein concentration 0.1207 µM
[3] = protein concentration 0.0111429 µM
[4] = protein concentration 0.111429 µM
[5] = protein concentration 0.0076025 µM
[6] = protein concentration 0.076025 µM
[7] = protein concentration 0.03125 µM
[8] = protein concentration 0.3125 µM
[9] = protein concentration 0.0225 µM
[10] = protein concentration 0.0231125 µM
[11] = protein concentration 0.231125 µM
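Note: secreted proteins added to cultured cells, EdU pulse at the end, nuclei found by Hoechst imaging, EdU status from nuclear versus surrounding ring intensity ratio, PBS as neutral control.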

MALFVRLLALALALALGPAATLAGPAKSPYQLVLQHSRLRGRQHGPNVCAVQKVIGTNRKYFTNCKQWYQRKICGKSTVISYECCPGYEKVPGEKGCPAALPLSNLYETLGVVGSTTTQLYTDRTEKLRPEMEGPGSFTIFAPSNEAWASLPAEVLDSLVSNVNIELLNALRYHMVGRRVLTDELKHGMTLTSMYQNSNIQIHHYPNGIVTVNCARLLKADHHATNGVVHLIDKVISTITNNIQQIIEIEDTFETLRAAVAASGLNTMLEGNGQYTLLAPTNEAFEKIPSETLNRILGDPEALRDLLNNHILKSAMCAEAIVAGLSVETLEGTTLEVGCSGDMLTINGKAIISNKDILATNGVIHYIDELLIPDSAKTLFELAAESDVSTAIDLFRQAGLGNHLSGSERLTLLAPLNSVFKDGTPPIDAHTRNLLRNHIIKDQLASKYLYHGQTLETLGGKKLRVFVYRNSLCIENSCIAAHDKRGRYGTLFTMDRVLTPPMGTVMDVLKGDNRFSMLVAAIQSAGLTETLNREGVYTVFAPTNEAFRALPPRERSRLLGDAKELANILKYHIGDEILVSGGIGALVRLKSLQGDKLEVSLKNNVVSVNKEPVAEPDIMATNGVVHVITNVLQPPANRPQERGDELADSALEIFKQASAFSRASQRSVRLAPVYQKLLERMKH
percentage of EdU-negative (MCF7; [1]): 25.4 ± 0.46%
percentage of EdU-negative (MCF7; [2]): 28.3 ± 0.63%
percentage of EdU-negative (hTERT-HMEC; [1]): 5.243 ± 0.015%
percentage of EdU-negative (hTERT-HMEC; [2]): 4.82 ± 0.7%

MALGLLIAVPLLLQAAPRGAAHYEMMGTCRMICDPYTAAPGGEPPGAKAQPPGPSTAALEVMQDLSANPPPPFIQGPKGDPGRPGKPGPRGPPGEPGPPGPRGPPGEKGDSGRPGLPGLQLTAGTASGVGVVGGGAGVGGDSEGEVTSALSATFSGPKIAFYVGLKSPHEGYEVLKFDDVVTNLGNHYDPTTGKFSCQVRGIYFFTYHILMRGGDGTSMWADLCKNGQVRASAIAQDADQNYDYASNSVVLHLDSGDEVYVKLDGGKAHGGNNNKYSTFSGFLLYPD [Q7Z5L3]
percentage of EdU-negative (MCF7; [3]): 22.8 ± 1.6%
percentage of EdU-negative (MCF7; [4]): 30 ± 0.7%
percentage of EdU-negative (hTERT-HMEC; [3]): 5.39 ± 0.86%
percentage of EdU-negative (hTERT-HMEC; [4]): 5.7 ± 1.1%

MALGQKLFITMSRGAGRLQGTLWALVFLGILVGMVVPSPAGTRANNTLLDSRGWGTLLSRSRAGLAGEIAGVNWESGYLVGIKRQRRLYCNVGIGFHLQVLPDGRISGTHEENPYSLLEISTVERGVVSLFGVRSALFVAMNSKGRLYATPSFQEECKFRETLLPNNYNAYESDLYQGTYIALSKYGRVKRGSKVSPIMTVTHFLPRI
percentage of EdU-negative (MCF7; [5]): 25.3 ± 0.82%
percentage of EdU-negative (MCF7; [6]): 25 ± 2.6%
percentage of EdU-negative (hTERT-HMEC; [5]): 4.73 ± 0.69%
percentage of EdU-negative (hTERT-HMEC; [6]): 5.27 ± 0.17%

MALGVPISVYLLFNAMTALTEEAAVTVTPPITAQQGNWTVNKTEADNIEGPIALKFSHLCLEDHNSYCINGACAFHHELEKAICRCFTGYTGERCEHLTLTSYAVDSYEKYIAIGIGVGLLLSGFLVIFYCYIRKRCLKLKSPYNVCSGERRPL
percentage of EdU-negative (MCF7; [7]): 26.2 ± 0.87%
percentage of EdU-negative (MCF7; [8]): 27 ± 2.6%
percentage of EdU-negative (hTERT-HMEC; [7]): 5.25 ± 0.34%
percentage of EdU-negative (hTERT-HMEC; [8]): 5.12 ± 0.77%

MALHIHEACILLLVIPGLVTSAAISHEDYPADEGDQISSNDNLIFDDYRGKGCVDDSGFVYKLGERFFPGHSNCPCVCALDGPVCDQPECPKIHPKCTKVEHNGCCPECKEVKNFCEYHGKNYKILEEFKPSPCEWCRCEPSNEVHCVVADCAVPECVNPVYEPEQCCPVCKNGPNCFAGTTIIPAGIEVKVDECNICHCHNGDWWKPAQCSKRECQGKQTV [B2RUY7]
percentage of EdU-negative (MCF7; [9]): 26.9 ± 1.9%
percentage of EdU-negative (MCF7; protein concentration 0.225 µM): 25.9 ± 1.7%
percentage of EdU-negative (hTERT-HMEC; [9]): 5.12 ± 0.14%
percentage of EdU-negative (hTERT-HMEC; protein concentration 0.225 µM): 5.63 ± 0.95%

MALLFSLILAICTRPGFLASPSGVRLVGGLHRCEGRVEVEQKGQWGTVCDDGWDIKDVAVLCRELGCGAASGTPSGILYEPPAEKEQKVLIQSVSCTGTEDTLAQCEQEEVYDCSHDEDAGASCENPESSFSPVPEGVRLADGPGHCKGRVEVKHQNQWYTVCQTGWSLRAAKVVCRQLGCGRAVLTQKRCNKHAYGRKPIWLSQMSCSGREATLQDCPSGPWGKNTCNHDEDTWVECEDPFDLRLVGGDNLCSGRLEVLHKGVWGSVCDDNWGEKEDQVVCKQLGCGKSLSPSFRDRKCYGPGVGRIWLDNVRCSGEEQSLEQCQHRFWGFHDCTHQEDVAVICSG
percentage of EdU-negative (MCF7; [10]): 24.9 ± 0.77%
percentage of EdU-negative (MCF7; [11]): 27.1 ± 0.67%
percentage of EdU-negative (hTERT-HMEC; [10]): 5.21 ± 0.98%
percentage of EdU-negative (hTERT-HMEC; [11]): 5.51 ± 0.056%

MALLPVLFLVTVLLPSLPAEGKDPAFTALLTTQLQVQREIVNKHNELRKAVSPPASNMLKMEWSREVTTNAQRWANKCTLQHSDPEDRKTSTRCGENLYMSSDPTSWSSAIQSWYDEILDFVYGVGPKSPNAVVGHYTQLVWYSTYQVGCGIAYCPNQDSLKYYYVCQYCPAGNNMNRKNTPYQQGTPCAGCPDDCDKGLCTNSCQYQDLLSNCDSLKNTAGCEHELLKEKCKATCLCENKIY
percentage of EdU-negative (MCF7; [7]): 26.4 ± 1.6%
percentage of EdU-negative (MCF7; [8]): 25 ± 1.1%
percentage of EdU-negative (hTERT-HMEC; [7]): 5.26 ± 0.72%
percentage of EdU-negative (hTERT-HMEC; [8]): 6.12 ± 1.6%
